This note sets out measurements from PMC9388496.

Test [1] concerns the target FcRn coupled to the resin of the affinity chromatography column (UniProt P55899). The test can be described thus: analytical FcRn affinity chromatography; protein (1 mg/ml, alone or preincubated with cognate Ag) injected on a column with FcRn-coupled resin at pH 5.5 (20 mM MES, 140 mM NaCl), eluted by a linear pH gradient to pH 8.8 (20 mM Tris-HCl, 140 mM NaCl) over 110 min.

Test [2] deals with VEGF-165 (VEGF-A165, Sino Biological) (UniProt P15692). The experiment in a line: SPR (Biacore T200). The note with it: pH 5.5 vs 7.4, 0.15 M NaCl, 67 mM phosphate, the same buffer adjusted to pH 7.4 with 1 M NaOH.
Chain of VEGF-165 (VEGF-A165, Sino Biological) (P15692 whole entry, the tested form may be a part): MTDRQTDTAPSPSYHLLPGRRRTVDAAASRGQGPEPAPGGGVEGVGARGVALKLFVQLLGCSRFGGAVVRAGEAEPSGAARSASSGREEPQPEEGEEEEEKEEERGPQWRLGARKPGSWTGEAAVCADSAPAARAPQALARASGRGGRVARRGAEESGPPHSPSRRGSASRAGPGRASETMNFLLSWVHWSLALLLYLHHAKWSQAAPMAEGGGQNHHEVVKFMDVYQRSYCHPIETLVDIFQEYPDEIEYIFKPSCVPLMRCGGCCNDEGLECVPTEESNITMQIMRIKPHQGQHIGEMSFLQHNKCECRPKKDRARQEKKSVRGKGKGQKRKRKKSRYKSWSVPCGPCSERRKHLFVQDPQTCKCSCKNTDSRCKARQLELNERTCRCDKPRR
The target of test [3] is Truncated monomeric His-tagged FcRn (UniProt P55899).
The target is the same in test [4]. The source holds these as a separate data set.
The target in test [5] is IgG1-derived Fc fragment (human). The test can be described thus: SPR; Biacore T200; IgG1, Fc or ABTs immobilised (~400 RU) on CM5 by amine coupling; monomeric His-tagged FcRn (2000-1.95 nM) injected at pH 5.5 (67 mM phosphate, 0.15 M NaCl, 0.005% Tween20), 50 μl/min; 1:1 Langmuir binding model.
Test [6] deals with adalimumab (Humira) (human). The test is described as above.
Another test deals with aflibercept (Eylea) (UniProt P17948). The description is as above.
Test [7] addresses anti-NIP IgG1 (human | mouse). Described as above.
Test [8] deals with bevacizumab (Avastin) (human). The test is described as above.
The target in the next test is etanercept (Enbrel) (UniProt P20333). Described as above.
Test [9] addresses infliximab (Remicade) (human). The test is described as above.

Chain of aflibercept (Eylea) (from UniProt P17948 129-229; P35968 1-764) (Fc fusion) (P17948 other isoform, or with tags, fused parts or gaps): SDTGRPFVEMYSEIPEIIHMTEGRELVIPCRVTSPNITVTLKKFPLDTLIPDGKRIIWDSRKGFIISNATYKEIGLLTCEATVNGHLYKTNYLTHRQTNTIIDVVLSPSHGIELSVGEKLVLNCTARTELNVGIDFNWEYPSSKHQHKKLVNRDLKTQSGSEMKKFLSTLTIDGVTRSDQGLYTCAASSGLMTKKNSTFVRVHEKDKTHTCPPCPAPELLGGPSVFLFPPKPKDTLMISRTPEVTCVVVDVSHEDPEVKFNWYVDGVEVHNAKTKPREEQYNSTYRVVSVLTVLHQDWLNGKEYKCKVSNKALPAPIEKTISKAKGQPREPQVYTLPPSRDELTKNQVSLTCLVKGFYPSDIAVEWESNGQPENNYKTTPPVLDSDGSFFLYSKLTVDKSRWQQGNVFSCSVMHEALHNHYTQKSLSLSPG

Take adalimumab (Humira) (antibody): the elution peak pH in [1] was 7.21 pH.
The same measure, in the same setting: for “etanercept (Enbrel) (from UniProt P20333 23-257) (Fc fusion)” the value was 6.88 pH.
Regarding “Aflibercept (Eylea), VEGFR1 D2-VEGFR2 D3-IgG1 Fc fusion”, the “on-rate (sensorgram comparison), fold change pH 5.5 over pH 7.4” value in [2] was “acidic pH enhanced the on-rate more than 5-fold”.
Take “aflibercept (Eylea) (from UniProt P17948 129-229; P35968 1-764) (Fc fusion)”: the elution peak pH in test [1] came to 7.01 pH.
Consider Bevacizumab (Avastin), for which the “on-rate (sensorgram comparison), fold change pH 5.5 over pH 7.4” value in test [2] is reported as “acidic pH enhanced the on-rate more than 5-fold”.
As for “anti-NIP IgG1 Fc-engineered variant M252Y/S254T/T256E/H433K/N434F (antibody)”, in [3], the cellular uptake in HERA (HMEC-1-FcRn cells) after 2 h incubation, relative to non-engineered anti-NIP IgG1 turned out to be 15 fold.
As for bevacizumab (Avastin) (antibody), the elution peak pH in [1] was found to be 7.2 pH.
For “IgG1-derived Fc fragment (domain or fragment)”, the reduction of the recycling of 400 nM anti-NIP IgG1 (m4) by titrated Fc fragment (6400-1 nM) in HERA, HMEC-1-FcRn cells preloaded with IVIg, uptake at pH 6.0 in [4] was found to be 32.9 nM. In test [1], this substance returned an elution peak pH of 7.13 pH.
infliximab (Remicade) (antibody) showed an elution peak pH in test [1] of 7.15 pH.
Consider “Truncated monomeric His-tagged FcRn (from UniProt P55899 24-365) (receptor)”, for which the Kd in test [5] amounted to 230 nM; in test [6], 430 nM; with aflibercept (Eylea), 350 nM; in test [7], 330 nM; in test [8] it was 380 nM; in the test with etanercept (Enbrel), 380 nM. The equilibrium dissociation constant (Kd) in test [9] came out at 310 nM. For the same substance, the off-rate (koff) came out at 0.001 s⁻¹ in test [6]; 0.001 s⁻¹ with aflibercept (Eylea); 0.001 s⁻¹ in test [8]; 0.001 s⁻¹ with etanercept (Enbrel); 0.002 s⁻¹ in test [9]. For the same substance, the on-rate (kon) in test [6] turned out to be 42000 M⁻¹ s⁻¹; with aflibercept (Eylea), 30000 M⁻¹ s⁻¹; in [8], 32000 M⁻¹ s⁻¹; with etanercept (Enbrel) it was 31000 M⁻¹ s⁻¹; in [9], 35000 M⁻¹ s⁻¹.
